Assay results taken from the Immune Epitope Database (IEDB).
pKd: −log10 of the molar value.

Columns and labels:
Experiment in all cases: IEDB peptide-MHC binding, purified MHC/competitive/radioactivity; filed as Kd, often an IC50 or EC50 that approximates it; ≥ and ≤ were set here for values at or beyond the usual limits of such assays
HLA-A*03:01 = target: HLA-A*03:01
HLA-A*11:01 = target: HLA-A*11:01
HLA-A*31:01 = target: HLA-A*31:01
HLA-A*33:01 = target: HLA-A*33:01
HLA-A*68:01 = target: HLA-A*68:01
HLA-A*02:02 = conditions: source organism: Vaccinia virus WR
HLA-A*02:03 = target: HLA-A*02:03
HLA-A*02:06 = target: HLA-A*02:06
[1] = source organism: Vaccinia virus WR
[2] = source organism: Vaccinia virus Copenhagen
[3] = source organism: SARS coronavirus Tor2
[4] = source organism: Mammarenavirus brazilense
[5] = source organism: Mammarenavirus whitewaterense
[6] = source organism: Dengue virus 4 Philippines/H241/1956
[7] = source organism: Mammarenavirus lassaense
[8] = source organism: Mammarenavirus guanaritoense
[9] = source organism: Mammarenavirus juninense

QFVDINRNNK showed a pKd (HLA-A*03:01; [1]) of 5.73, a pKd (HLA-A*11:01; [1]) of 6.18 and a pKd (HLA-A*31:01; [1]) of 8.34. For the same sequence, the pKd (HLA-A*33:01; [1]) was 6.12 and the pKd (HLA-A*68:01; [1]) was 6.77.

With QLMYALEPR the pKd (HLA-A*03:01; [2]) was 4.82, the pKd (HLA-A*11:01; [2]) was 5.61 and the pKd (HLA-A*31:01; [2]) was 4.89. For the same sequence, the pKd (HLA-A*33:01; [2]) was 4.76 and the pKd (HLA-A*68:01; [2]) was 5.53.

For QLMYDIINSV, the pKd (HLA-A*02:02) was 8.73, the pKd (HLA-A*02:03; [1]) was 9.86 and the pKd (HLA-A*02:06; [1]) was 8.25.

For QLPQGTTLPK, the pKd (HLA-A*03:01; [3]) was 7.28, the pKd (HLA-A*11:01; [3]) was 6.40 and the pKd (HLA-A*31:01; [3]) was 5.06. For the same sequence, the pKd (HLA-A*33:01; [3]) was ≤ 4.43 and the pKd (HLA-A*68:01; [3]) was 6.50.

For QQLCTMERT, the pKd (HLA-A*02:02) was ≤ 4.11, the pKd (HLA-A*02:03; [1]) was 5.34 and the pKd (HLA-A*02:06; [1]) was 6.03.

In the case of QTQTYNIGK, the pKd (HLA-A*03:01; [1]) was 6.84, the pKd (HLA-A*11:01; [1]) was 8.15 and the pKd (HLA-A*31:01; [1]) was 6.50. For the same sequence, the pKd (HLA-A*33:01; [1]) was 5.58 and the pKd (HLA-A*68:01; [1]) was 8.05.

RAIMATIQR gave a pKd (HLA-A*03:01; [3]) of 5.57, a pKd (HLA-A*11:01; [3]) of 7.04 and a pKd (HLA-A*31:01; [3]) of 7.34. The pKd (HLA-A*33:01; [3]) was 5.15 and the pKd (HLA-A*68:01; [3]) was 7.14.

For RALKYDFNH, the pKd (HLA-A*03:01; [4]) was 5.24, the pKd (HLA-A*11:01; [4]) was 5.36 and the pKd (HLA-A*31:01; [4]) was 7.19. It also gave a pKd (HLA-A*33:01; [4]) of 5.14 and a pKd (HLA-A*68:01; [4]) of 5.16.

In the case of RLATAIAGA, the pKd (HLA-A*02:03; source organism: Dengue virus 3 Martinique/1243/1999) was 7.94.

RLLHCVTESY was tested, and the pKd (HLA-A*03:01; [1]) was 7.14, the pKd (HLA-A*11:01; [1]) was 7.40 and the pKd (HLA-A*31:01; [1]) was 7.50. The pKd (HLA-A*33:01; [1]) was 5.16 and the pKd (HLA-A*68:01; [1]) was 6.22.

For RNPYENVLYK, the pKd (HLA-A*03:01; [5]) was 5.64, the pKd (HLA-A*11:01; [5]) was 5.82 and the pKd (HLA-A*31:01; [5]) was ≤ 4.54. The pKd (HLA-A*33:01; [5]) was ≤ 4.15 and the pKd (HLA-A*68:01; [5]) was 5.46.

For RQQLEDIFM, the pKd (HLA-A*02:02) was 5.24, the pKd (HLA-A*02:03; [1]) was ≤ 4.57 and the pKd (HLA-A*02:06; [1]) was 6.03.

With RTTWAFCEV the pKd (HLA-A*02:06; [6]) was 7.64.

In the case of SICSTMTNR, the pKd (HLA-A*03:01; [3]) was 6.06, the pKd (HLA-A*11:01; [3]) was 7.89 and the pKd (HLA-A*31:01; [3]) was 8.97. It also gave a pKd (HLA-A*33:01; [3]) of 7.38 and a pKd (HLA-A*68:01; [3]) of 7.33.

In the case of SIPISELSR, the pKd (HLA-A*03:01; [1]) was ≤ 4.61, the pKd (HLA-A*11:01; [1]) was 6.90 and the pKd (HLA-A*31:01; [1]) was 5.43. It also gave a pKd (HLA-A*33:01; [1]) of 5.01 and a pKd (HLA-A*68:01; [1]) of 7.95.

SLFKNVRLLK showed a pKd (HLA-A*03:01; [1]) of 8.29, a pKd (HLA-A*11:01; [1]) of 7.88 and a pKd (HLA-A*31:01; [1]) of 6.93. For the same sequence, the pKd (HLA-A*33:01; [1]) was 5.66 and the pKd (HLA-A*68:01; [1]) was 6.47.

SLLKTHRMCK was tested, and the pKd (HLA-A*03:01; [3]) was 7.87, the pKd (HLA-A*11:01; [3]) was 7.41 and the pKd (HLA-A*31:01; [3]) was 6.34. For the same sequence, the pKd (HLA-A*33:01; [3]) was 5.16 and the pKd (HLA-A*68:01; [3]) was ≤ 4.63.

STTDAEACY was tested, and the pKd (HLA-A*03:01; [1]) was ≤ 4.32, the pKd (HLA-A*11:01; [1]) was 6.36 and the pKd (HLA-A*31:01; [1]) was ≤ 4.12. The pKd (HLA-A*33:01; [1]) was 4.76 and the pKd (HLA-A*68:01; [1]) was 6.79.

SVSGDLILEI was tested, and the pKd (HLA-A*02:06; source organism: Dengue virus 1 Brazil/97-11/1997) was 7.05.

In the case of TAIKEVVMAY, the pKd (HLA-A*03:01; [1]) was 5.35, the pKd (HLA-A*11:01; [1]) was 5.95 and the pKd (HLA-A*31:01; [1]) was 5.37. For the same sequence, the pKd (HLA-A*33:01; [1]) was ≤ 4.67 and the pKd (HLA-A*68:01; [1]) was 6.50.

In the case of TCQGSEDIK, the pKd (HLA-A*03:01; [7]) was ≤ 4.11, the pKd (HLA-A*11:01; [7]) was 4.82 and the pKd (HLA-A*31:01; [7]) was ≤ 4.21. For the same sequence, the pKd (HLA-A*33:01; [7]) was ≤ 4.11 and the pKd (HLA-A*68:01; [7]) was ≤ 4.52.

TLFIDRGSIK showed a pKd (HLA-A*03:01; [2]) of 7.91, a pKd (HLA-A*11:01; [2]) of 7.49 and a pKd (HLA-A*31:01; [2]) of 5.10. The pKd (HLA-A*33:01; [2]) was 5.33 and the pKd (HLA-A*68:01; [2]) was 7.39.

For TMRIYCSLFK, the pKd (HLA-A*03:01; [1]) was 8.93, the pKd (HLA-A*11:01; [1]) was 9.68 and the pKd (HLA-A*31:01; [1]) was 8.75. For the same sequence, the pKd (HLA-A*33:01; [1]) was 7.03 and the pKd (HLA-A*68:01; [1]) was 7.57.

Work on TNFESFTVK yielded a pKd (HLA-A*03:01; [8]) of 6.44, a pKd (HLA-A*11:01; [8]) of 5.84 and a pKd (HLA-A*31:01; [8]) of 6.57. The pKd (HLA-A*33:01; [8]) was ≤ 4.11 and the pKd (HLA-A*68:01; [8]) was 7.61.

For TQSRDLEDFK, the pKd (HLA-A*03:01; [3]) was 4.71, the pKd (HLA-A*11:01; [3]) was 4.90 and the pKd (HLA-A*31:01; [3]) was 4.84. For the same sequence, the pKd (HLA-A*33:01; [3]) was ≤ 4.15 and the pKd (HLA-A*68:01; [3]) was ≤ 4.54.

Work on TVFFTASLFL yielded a pKd (HLA-A*03:01; [9]) of 5.88, a pKd (HLA-A*11:01; [9]) of 6.32 and a pKd (HLA-A*31:01; [9]) of 5.14. The pKd (HLA-A*33:01; [9]) was ≤ 4.15 and the pKd (HLA-A*68:01; [9]) was 6.05.

Work on VADLSARNK yielded a pKd (HLA-A*03:01; [1]) of 6.67, a pKd (HLA-A*11:01; [1]) of 6.82 and a pKd (HLA-A*31:01; [1]) of 5.52. The pKd (HLA-A*33:01; [1]) was 4.93 and the pKd (HLA-A*68:01; [1]) was 5.95.

Sequence VAFELWAKR has a pKd (HLA-A*03:01; [3]) of 5.03, a pKd (HLA-A*11:01; [3]) of 5.49 and a pKd (HLA-A*31:01; [3]) of 7.11. For the same sequence, the pKd (HLA-A*33:01; [3]) was 7.28 and the pKd (HLA-A*68:01; [3]) was 7.63.

Sequence VFKDSFLRK has a pKd (HLA-A*03:01; [1]) of 6.49, a pKd (HLA-A*11:01; [1]) of 6.67 and a pKd (HLA-A*31:01; [1]) of 6.81. For the same sequence, the pKd (HLA-A*33:01; [1]) was 5.73 and the pKd (HLA-A*68:01; [1]) was 6.11.

With VIILAALFMY the pKd (HLA-A*03:01; [1]) was 5.58, the pKd (HLA-A*11:01; [1]) was 6.35 and the pKd (HLA-A*31:01; [1]) was ≤ 4.15. For the same sequence, the pKd (HLA-A*33:01; [1]) was ≤ 4.15 and the pKd (HLA-A*68:01; [1]) was ≤ 4.29.

For VILQNAWKV, the pKd (HLA-A*02:06; source organism: Dengue virus 2 Jamaica/1409/1983) was 8.35.

VLDMCAALK was tested, and the pKd (HLA-A*03:01; [3]) was 7.75, the pKd (HLA-A*11:01; [3]) was 7.35 and the pKd (HLA-A*31:01; [3]) was 5.63. For the same sequence, the pKd (HLA-A*33:01; [3]) was 4.87 and the pKd (HLA-A*68:01; [3]) was 5.60.

VLFVKKMLPK showed a pKd (HLA-A*03:01; [1]) of 8.14, a pKd (HLA-A*11:01; [1]) of 7.92 and a pKd (HLA-A*31:01; [1]) of 5.76. The pKd (HLA-A*33:01; [1]) was 4.87 and the pKd (HLA-A*68:01; [1]) was 5.63.

In the case of WIKDIMTSTR, the pKd (HLA-A*03:01; [1]) was 5.66, the pKd (HLA-A*11:01; [1]) was ≤ 4.67 and the pKd (HLA-A*31:01; [1]) was 6.52. For the same sequence, the pKd (HLA-A*33:01; [1]) was 7.19 and the pKd (HLA-A*68:01; [1]) was 7.64.

In the case of WVLAYMLFTK, the pKd (HLA-A*03:01; [3]) was 7.62, the pKd (HLA-A*11:01; [3]) was 7.49 and the pKd (HLA-A*31:01; [3]) was 5.90. It also gave a pKd (HLA-A*33:01; [3]) of 5.40 and a pKd (HLA-A*68:01; [3]) of 6.98.

In the case of YLSSRAKLA, the pKd (HLA-A*02:03; [6]) was 7.44.
